The numbers were not newly measured in article PMC5828189, which cites them from elsewhere.

This series addresses C1q globular head (gC1q) (Homo sapiens) (UniProt P02745).
UniProt P02745, sequence (P02745 23-245, chain 1 of 3): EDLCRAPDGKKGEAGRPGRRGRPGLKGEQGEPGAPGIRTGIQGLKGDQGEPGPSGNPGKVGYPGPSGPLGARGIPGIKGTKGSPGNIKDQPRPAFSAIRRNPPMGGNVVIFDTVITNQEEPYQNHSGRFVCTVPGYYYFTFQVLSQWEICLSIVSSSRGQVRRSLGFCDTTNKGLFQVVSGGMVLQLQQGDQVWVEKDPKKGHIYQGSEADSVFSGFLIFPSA
UniProt P02745, sequence (P02746 28-253, chain 2 of 3, further chain): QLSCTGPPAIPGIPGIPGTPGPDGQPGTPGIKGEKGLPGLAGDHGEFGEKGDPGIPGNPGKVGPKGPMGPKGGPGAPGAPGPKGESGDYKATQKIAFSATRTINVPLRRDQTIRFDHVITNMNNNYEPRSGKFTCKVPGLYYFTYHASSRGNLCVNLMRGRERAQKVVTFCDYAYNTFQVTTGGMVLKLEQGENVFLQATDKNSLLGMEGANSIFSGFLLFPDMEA
UniProt P02745, sequence (P02747 29-245, chain 3 of 3, further chain): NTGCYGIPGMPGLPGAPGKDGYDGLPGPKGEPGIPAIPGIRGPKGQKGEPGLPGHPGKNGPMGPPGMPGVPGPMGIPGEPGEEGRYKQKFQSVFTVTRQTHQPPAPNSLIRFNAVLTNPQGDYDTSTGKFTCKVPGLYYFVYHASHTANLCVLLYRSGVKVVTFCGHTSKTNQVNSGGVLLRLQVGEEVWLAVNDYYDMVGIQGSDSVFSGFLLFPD

The term Kd denotes the concentration at which binding is half-saturated. Turning to HABP1/p32/gC1qR (from UniProt Q07021), the dissociation constant (Kd) was 75 nM.
